Experimental data taken from patent publication US7807397B2, “Diagnostic method for disorders using copeptin” (B.R.A.H.M.S Aktiengesellschaft, priority 2004, dated 2010).
Read-outs that look alike come from different tables or passages of the source. Where no end group is shown, it is not given here.

How the values were obtained:
[1] = reference [14]; cited from earlier work
[2] = test system: blood platelets; conditions: reference [21]; cited from earlier work
[3] = type: in vitro ADME, human
Procedure: The following assay buffer was used: 100 mM sodium phosphate, 150 mM NaCl, 5% bovine serum albumin, 0.1% unspecified sheep IgG, 0.1% sodium azide, pH 7.4.
As a standard material chemically synthesized peptide (peptide PAY 33) was used which corresponds to positions 132-164 of vasopressin-neurophysin 2-copeptin precursor. The standard was diluted in normal horse serum (Sigma). […]
In the test tubes 100 μl of standards or sample as well as 100 μl of assay buffer was pipetted. The tubes were incubated for two hours at 22° C. using gentle rotation. After washing 4 times with 1 ml of washing buffer (0.1% Tween 20), the supernatant was discarded. Then 200 μl of assay buffer, containing 1 million RLU (relative light units) of MA70-tagged antibody was added and incubated for a further two hours under gentle rotation at 22° C. After washing 4 times with 1 ml of washing buffer (0.1% Tween 20), the chemiluminescence bound to the tube was determined in a luminometer (Berthold, LB952T, basic reagents Brahms AG).
Using the software MULTICALC® (Spline Fit), the concentrations of the samples were determined.
The term copeptin immunoreactivity describes the amount of substrate detected by the developed sandwich immunoassay. The sandwich immunoassay uses antibodies raised against positions 132-147 and 149-164 of the vasopressin-neurophysin 2-copeptin-precursor for detection of the substrate. A typical standard curve for the developed assay is described in FIG. 1. Using the assay concentrations above 50 pg/ml copeptin immunoreactivity in plasma or serum can be determined quantitatively.

Row | Compound | half-life in vivo [1] [min] | fraction bound to blood platelets [2] | Recovery (%) ([3]; plasma (n = 5), storage 1 d/4° C.) | Recovery (%) ([3]; plasma (n = 5), storage 1 d/RT) | Recovery (%) ([3]; plasma (n = 5), storage 2 d/4° C.) | Recovery (%) ([3]; plasma (n = 5), storage 2 d/RT) | Recovery (%) ([3]; serum (n = 3), storage 1 d/4° C.) | Recovery (%) ([3]; serum (n = 3), storage 1 d/RT) | Recovery (%) ([3]; serum (n = 3), storage 2 d/4° C.) | Recovery (%) ([3]; serum (n = 3), storage 2 d/RT)
1 | NC(=O)CC[C@@H]1NC(=O)[C@H](Cc2ccccc2)NC(=O)[C@H](Cc2ccc(O)cc2)NC(=O)[C@@H](N)CSSC[C@@H](C(=O)N2CCC[C@H]2C(=O)N[C@@H](CCCN=C(N)N)C(=O)NCC(N)=O)NC(=O)[C@H](CC(N)=O)NC1=O [vasopressin] | 24 | More than 90% |  |  |  |  |  |  |  | 
2 | copeptin: C-terminal glycoprotein of the VP prohormone, 39 amino acids plus sugar moiety; measured as endogenous copeptin immunoreactivity (ASDRSNATQLDGPAGALLLRLVQLAGAPEPFEPAQPDAY; also: glycosylated (sugar moiety); UniProt P01185 126-164, looked up) |  |  | 103.4 | 99.9 | 101.6 | 104.9 | 98.0 | 94.1 | 99.2 | 103.7
